Data as given in patent US20250197505A1 (DREN BIO, published 2025).

Key:
[1] = target: T1, human CD94 expressed on cells (human primary NK cells in PBMCs; HEK cells expressing human CD94) (human, UniProt Q13241 1-179); test: competition assay, flow cytometry on CD3-CD56+ NK cells in healthy donor PBMCs; AF647-labelled 18H3 titrated in the presence of Mouse IgG1 control (no competitor)
T1 construct: whole, on cells; also called KLRD1; Natural killer cells antigen CD94
T1 sequence (looked up): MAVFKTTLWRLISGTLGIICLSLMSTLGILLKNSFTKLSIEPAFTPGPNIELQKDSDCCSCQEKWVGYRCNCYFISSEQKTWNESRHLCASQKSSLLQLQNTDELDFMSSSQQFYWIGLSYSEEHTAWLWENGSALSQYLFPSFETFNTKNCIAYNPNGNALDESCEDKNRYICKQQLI
Protocol: FIGS. 5A-5B show the results of competition assays performed for 18H3 anti-CD94 antibody evaluation. For all competition assays, 18H3 was incubated with PBMCs at a concentration of […]. […] Commercially available anti-CD94 antibodies were titrated and incubated with PBMCs concurrently with 18H3. […] To test competition between 18H3 and 1M4/1E4, 1M4 and 1E4 were incubated with cells at concentrations of 8.5 µg/ml and […], respectively. 18H3 was fluorescently tagged with AF647 and incubated with cells concurrently with […].
Healthy donor PBMCs were seeded in 96-well plates at a density of 100,000 cells per well, incubated with human Fc block (Biolegend) and cell viability dye (Thermo Fisher) for 30 minutes on ice and protected from light. The cells were washed once with FACS buffer (PBS with 2% IgG low FBS). Unconjugated anti-CD94 antibodies at EC80 concentrations, CD3 FITC and CD56 PE antibodies, and APC-labeled anti-CD94 antibodies were incubated with cells for 30 minutes on ice and protected from light. The cells then received a final wash in FACS buffer before quantification on the Cytoflex (Beckman Coulter). All data acquisition and fluorescence compensation were performed using CytoFlex (Beckman Coulter, Atlanta, GA). Data analysis was performed using FlowJo software. […] Anti-CD94 APC was then quantified on the CD3−CD56+NK cell population. […]

[2] = target: T1, human CD94 expressed on cells (human …); test: cell-based or functional assay
[3] = target: T1, human CD94 expressed on cells (human …); test: HLA-E tetramer blocking assay, flow cytometry on CD3-CD56+ NK cells in healthy donor PBMCs; antibody at one saturating concentration, blocked ligand PE-labelled HLA-E tetramer; percent blocking = 100-((percent HLA-E positive with antibody)/(percent HLA-E positive with isotype)*100)
Protocol: Healthy donor PBMCs were incubated with anti-CD94 antibodies. PE labeled HLA-E tetramer was then incubated with the cell and antibody mixture, and detected using flow cytometry. For HP-3B1, 131412, 12K45, DX22, 1M4 and 1E4, 2.5 μl of HLA-E tetramer reagent was used, while 5 μl was used for 18H3 and HP-3D9. Saturating concentrations of each antibody was used in this assay. The percent blocking was calculated as 100−((percent HLA-E positive for anti-CD94 antibody)/(percent HLA-E positive for isotype)*100).
Healthy donor PBMCs were seeded in 96-well plates at a density of 100,000 cells per well, incubated with human Fc block (Biolegend) and cell viability dye (Thermo Fisher) for 30 minutes on ice and protected from light. The cells were washed once with FACS buffer (PBS with 2% IgG low FBS). anti-CD94 antibodies at EC80 concentrations were incubated with cells for 30 minutes on ice and protected from light. After incubation with the anti-CD94 antibodies, the cells were washed and incubated with HLA-E tetramer PE (Creative Biolabs), anti-CD3 pacific blue-labelled, and anti-CD56 FITC-labelled antibodies (Biolegend) for 30 minutes on ice and protected from light. The cells then received a final wash in FACS buffer before quantification on the Cytoflex (Beckman Coulter). All data acquisition and fluorescence compensation were performed using CytoFlex (Beckman Coulter, Atlanta, GA). Data analysis was performed using FlowJo software. NK cells were identified through gating on lymphocytes on the forward and side scatter, followed by doublet and dead cell exclusion, and gated on the CD3−CD56+ population. HLA-E expression was then quantified on the CD3−CD56+NK cell population. Percent blocking was calculated as 100−((percent HLA-E positive for anti-CD94 antibody)/(percent HLA-E positive for isotype)*100).

[4] = target: T1, human CD94 expressed on cells (human …); test: flow cytometry titration (100 nM to 0.046 nM) on primary NK cells in healthy donor PBMCs; human primary NK cells, flow cytometry titration
Protocol: Peripheral blood monocuclear cells (PBMCs) of healthy donor HD-40 were used for antibody staining. 18H3 antibody was titrated from 100 nM to 0.046 nM in 1:3 dilutions and incubated with PBMCs. CD3 and CD56 antibodies were used to identify NK cells on the flow scatter. 18H3 antibody binding on […] and CD56 bright NK cells was used to assess affinity of 18H3. Titration curves and EC50 were generated using Graphpad Prism. […] Human IgG1 isotype control with secondary antibody (hIgG1) and goat (Fab)2 fragment anti-human Fcy-specific secondary antibody AF647 only (2ndary Ab) were used as controls.
Healthy donor PBMCs were seeded in 96 well plates at a density of 100,000 cells per well, incubated with human Fc block (Biolegend) and cell viability dye (Thermo Fisher) for 30 minutes on ice and protected from light. […] After incubation, the cells received a final wash in FACS buffer before quantification on the Cytoflex (Beckman Coulter). All data acquisition and fluorescence compensation were performed using CytoFlex (Beckman Coulter, Atlanta, GA). […] CD94 expression was then quantified on the CD3−CD56+NK cell population. […]
The affinity of the antibody clones was also assessed by flow cytometry analysis.

EC50 (read off the curve) [1]: ~1 nM
percent decrease in MFI (antibody internalization assay), comparing 0.5 hours to 24 hours at 37° C. [2]: 24%
HLA-E Blocking [3]: 0%
EC50 [4]: 2.6 nM
B1: anti-CD94 antibody clone 18H3 (antibody, V domains shown)
VH: EVQLVQSGAEVKKPGESLKISCKGSGYRFTSYWIGWVRQMPGKGLEWMGIIYPGDSDTRYSPSFQGQVIISADKSITTAFLQWSSLKASDTAMYYCARPFDYGGSPGYFDYWGQGTLVTVSS
VL: DIQMTQSPSTLSASVGDRVTITCRASQSIRSWLAWYQQKPGKAPKLLIYKASSLESGVPSRFSGSGSGTEFTLTISSLQPDDFATYYCQQYNTFWTFGQGTKVEIK
notes: also called 18H3-AF647
